{"source": "patent US20200317756A1", "about": "(CERTEST BIOTEC S L, published 2020)", "binders": {"B1": {"name": "CL30Camp monoclonal antibody (antibody, V domains shown)", "VH": "QVQLKQSGPGLVQPSQSLSITCTVSGFSLTSSGVHWVRQSPGKGLEWLGVIWRGGSTDYNAAFMSRLSITKDNSKSQVFFKMNSLQPDDTAIYYCAKNYYYGTSPDYFDYWGQGTTLTVSS", "VL": "not shown", "notes": "also called CL30Camp/CL30Camp (immobilized/labeled pair in the test device)"}}, "key": {"[1]": {"target": "T1, DNA-Binding Protein from Starved Cells (Dps) of Campylobacter jejuni (Campylobacter jejuni, UniProt Q0P891 1-149)", "T1 construct": "also called Dps of C. jejuni", "test": "sandwich immunochromatographic strip, immobilized CL30Camp and labeled CL30Camp, Dps at 1.85 ng/mL, read by eye after 10 min"}, "[2]": {"target": "T2, DNA-Binding Protein from Starved Cells (Dps) of Campylobacter coli (Campylobacter coli)", "T2 construct": "also called Dps of C. coli", "test": "sandwich immunochromatographic strip, immobilized CL30Camp and labeled CL30Camp, Dps at 0.75 ng/mL, read by eye after 10 min (+/- = weak positive response)"}}}
{"binder": "B1", "values": [{"measurement": "binding result", "setting": "[1]", "result": "binds"}, {"measurement": "binding result", "setting": "[2]", "result": "binds"}]}
